Results: patent US20030050242A1, “Protein polymerization inhibitors and methods of use” (priority 1999, published 2003)
Ends that are not written are not given here. Peptide text beside a SMILES is read from it.

Key:
HIV-1 [1] = conditions: 100 μM; Experiment 6
Experimental: The HUT cells were resuspended in 1 ml of RPMI 1640 medium supplemented with 10% (v/v) heat-inactivated fetal bovine serum (FBS, GIBCO), penicillin (100 u/ml), streptomycin (100 u/ml) and Polybrene (Sigma, 2 μg/ml) with or without the presence of the different small peptides (100 μM) mentioned above. Thereafter, the HIV-1 virus was added at 25 TCID50 in a volume of 20 μl. Cells were incubated with the virus at 37° C. for one hour and, subsequently, the cells were pelleted at 170× g for seven minutes. The cells were then washed three times in RPMI medium without peptides at room temperature by cell sedimentation at 170× g for seven minutes, as above. After the final wash, the cells were resuspended in RPMI culture medium in 24-well plate (Costar corporation) and were kept at 37° C. in 5% CO2 with humidity. Culture supernatants were collected when medium was changed at day 4, 7, and 11 post infection and viral p24 production was monitored by using an HIV-1 p24 ELISA kit (Abbott Laboratories, North Chicago, USA).

HIV-1 [2] = conditions: summary of Experiments 1-6
Experimental: Next, the ability of peptide agents to inhibit viral infection was evaluated. Accordingly, the peptide agents listed in Table 1 were used in several viral (e.g., HIV-1, HIV-2, and SIV) infection assays. […] Once inhibitory tripeptides were identified, more specific assays were conducted to determine the effect of varying concentrations of the selected tripeptides and combination treatments (e.g., the use of more than one modified tripeptide in combination).

HIV-1 SF-2 virus = assay: electron microscopy of HIV-1 particles from infected HUT78 cells; format: cell-based; conditions: 0.5 μM control sample; cells fixed day 14
Experimental: Evidence that peptide agents inhibit or prevent viral capsid protein polymerization and, thus, proper nucleocapsid assembly was obtained by performing electron microscopy on HIV-1 particles that were contacted with a modified small peptide. In this set of experiments, HUT78 cells were infected with HIV-1 SF-2 virus at 300TCID50 for 1 hr at 37° C. Subsequently, the infected cells were washed and pelleted 3 times. […] GPG-NH2 was then added into the cell cultures 3, 5 or 7 days post infection at concentration of 1 μm or 10 μM. A control sample was administered 0.5 μM Ritonavir (a protease inhibitor). The cells were cultured until day 14, at which point, the cells were fixed in 2.5% glutaraldehyde by conventional means. The fixed cells were then post-fixed in 1% OSO4 and were dehydrated, embedded with epoxy resins, and the blocks were allowed to polymerize. Epon sections of virus infected cells were made approximately 60-80 nm thin in order to accommodate the width of the nucleocapsid. The sections were mounted to grids stained with 1.0% uranyl acetate and were analyzed in a Zeiss CEM 902 microscope at an accelerating voltage of 80 kV. The microscope was equipped with a spectrometer to improve image quality and a liquid nitrogen cooling trap was used to reduce beam damage. The grids having sections of control and GPG-NH2 incubated cells were examined in several blind studies.
(See FIG. 1). […]

[3] = biological target: viral capsid protein (p24) of HIV-2 (HIV-2)
[4] = biological target: major capsid protein (p24) of HIV-1 (HIV-1) (UniProt P04591)
[5] = biological target: viral capsid protein (p24) of SIV (SIV)
[6] = biological target: T1, major capsid protein (p24) of HIV-1 (HIV-1, UniProt P04591); assay: cell-based or functional assay
[7] = biological target: T1, major capsid protein (p24) of HIV-1; assay: cell-based or functional assay; remark: listed apart in the source

Which “reduction of virus, capsid protein p24 in the supernatant” value (“reduction of virus, capsid protein p24” for short) (HIV-1 [1]) does the source give for `CC(C)C[C@H](NC(=O)[C@H](C)N)C(=O)NCC(N)=O` [ALG-NH2, alanyl-leucyl-glycine amide] (H-Ala-Leu-Gly-NH2) here?
The value was about 100%.

And the “effect on HIV-1 infection, in words” value (HIV-1 [2])?
The value was “inhibited and/or prevented HIV-1 infection”.

Which results are given for `C[C@H](N)C(=O)N[C@@H](CO)C(=O)NCC(N)=O` [ASG-NH2, alanyl-seryl-glycine amide] (H-Ala-Ser-Gly-NH2)?
inhibiting or preventing HIV-1 infection, in words (HIV-1 [1]): less effective; effect on HIV-1 infection, in words (HIV-1 [2]): inhibited and/or prevented HIV-1 infection

What does the source list for `CC(C)[C@H](NC(=O)CN)C(=O)NCC(N)=O` [GVG-NH2, glycyl-valyl-glycine amide] (H-Gly-Val-Gly-NH2)?
inhibiting or preventing HIV-1 infection, in words (HIV-1 [1]): less effective; effect on HIV-1 infection, in words (HIV-1 [2]): inhibited and/or prevented HIV-1 infection

For `NCCCC[C@H](N)C(=O)N[C@@H](CCC(N)=O)C(=O)NCC(N)=O` [KQG-NH2, lysyl-glutaminyl-glycine amide] (H-Lys-Gln-Gly-NH2), which “reduction of virus, capsid protein p24” value (HIV-1 [1]) is on record?
Its value is about 100%.

What about the “effect on HIV-1 infection, in words” value (HIV-1 [2]) of the same molecule?
Its value is “inhibited and/or prevented HIV-1 infection”.

`N=C(N)NCCC[C@H](N)C(=O)N[C@@H](CCC(N)=O)C(=O)NCC(N)=O` [RQG-NH2, arginyl-glutaminyl-glycine amide] (H-Arg-Gln-Gly-NH2) was tested. Which “reduction of virus, capsid protein p24” value (HIV-1 [1]) did it give?
The value was about 100%.

What about the “effect on HIV-1 infection, in words” value (HIV-1 [2]) of the same molecule?
The value was “inhibited and/or prevented HIV-1 infection”.

For `CC(C)c1nc(CN(C)C(=O)N[C@H](C(=O)N[C@@H](Cc2ccccc2)C[C@H](O)[C@H](Cc2ccccc2)NC(=O)OCc2cncs2)C(C)C)cs1` [Ritonavir, reference compound], which “capsid/nucleocapsid morphology of HIV-1 particles” value (HIV-1 SF-2 virus) is on record?
The value was “malformed structures that did not have a discernable nucleocapsid”.

`CC(C)C[C@H](NC(=O)[C@@H](N)CO)C(=O)NCC(N)=O` [SLG-NH2, seryl-leucyl-glycine amide] (H-Ser-Leu-Gly-NH2) was tested. Which “reduction of virus, capsid protein p24” value (HIV-1 [1]) did it give?
The value was about 100%.

And the “effect on HIV-1 infection, in words” value (HIV-1 [2])?
Its value is “inhibited and/or prevented HIV-1 infection”.

`C[C@@H](O)[C@H](NC(=O)[C@@H]1CCCN1C(=O)[C@@H](N)CO)C(N)=O` [SPT-NH2, seryl-prolyl-threonine amide] (H-Ser-Pro-Thr-NH2) was tested. Which “inhibiting or preventing HIV-1 infection, in words” value (HIV-1 [1]) did it give?
The value was “less effective”.

What about the “effect on HIV-1 infection, in words” value (HIV-1 [2]) of the same molecule?
Its value is “inhibited and/or prevented HIV-1 infection”.

Which results are given for `CC(C)[C@H](N)C(=O)NCC(=O)NCC(N)=O` [VGG-NH2, valyl-glycyl-glycine amide] (H-Val-Gly-Gly-NH2)?
inhibiting or preventing HIV-1 infection, in words (HIV-1 [1]): less effective; effect on HIV-1 infection, in words (HIV-1 [2]): inhibited and/or prevented HIV-1 infection

GKG-NH2 + CQG-NH2 (pool or library) was tested. Which reverse transcriptase (RT) activity in the supernatants, Day 10 RT (OD) [3] did it give?
Its reverse transcriptase (RT) activity in the supernatants, Day 10 RT (OD) is 2.8 OD.

And the reverse transcriptase (RT) activity in the supernatants, Day 10 RT (OD) [4]?
Its reverse transcriptase (RT) activity in the supernatants, Day 10 RT (OD) is 1.89 OD.

And the reverse transcriptase (RT) activity in the supernatants, Day 10 RT (OD) [5]?
The reverse transcriptase (RT) activity in the supernatants, Day 10 RT (OD) was 2.89 OD.

For GPG-NH2 + CQG-NH2 (pool or library), which reverse transcriptase (RT) activity in the supernatants, Day 10 RT (OD) [3] is on record?
The reverse transcriptase (RT) activity in the supernatants, Day 10 RT (OD) was 1.17 OD.

And the reverse transcriptase (RT) activity in the supernatants, Day 10 RT (OD) [4]?
The reverse transcriptase (RT) activity in the supernatants, Day 10 RT (OD) was 0.397 OD.

What about the reverse transcriptase (RT) activity in the supernatants, Day 10 RT (OD) [5] of the same molecule?
The reverse transcriptase (RT) activity in the supernatants, Day 10 RT (OD) was 0.91 OD.

Which reverse transcriptase (RT) activity in the supernatants, Day 10 RT (OD) [3] does the source give for GPG-NH2 + GKG-NH2 (pool or library) here?
Its reverse transcriptase (RT) activity in the supernatants, Day 10 RT (OD) is 1.11 OD.

And the reverse transcriptase (RT) activity in the supernatants, Day 10 RT (OD) [4]?
The reverse transcriptase (RT) activity in the supernatants, Day 10 RT (OD) was 0.164 OD.

What about the reverse transcriptase (RT) activity in the supernatants, Day 10 RT (OD) [5] of the same molecule?
Its reverse transcriptase (RT) activity in the supernatants, Day 10 RT (OD) is 0.309 OD.

B1: Val-Gly-Gly-NH2 (peptide)
peptide: Val-Gly-Gly-NH2
B1 was tested. Which “p24 production of infected HUT78 cells (HIV-1 p24 ELISA), Day 7 HIV-1, reduction (%), peptide at 100 µM” value [6] did it give?
Its value is 50%.

B2: GAT-NH2 (peptide)
peptide: Gly-Ala-Thr-NH2
B2 was tested. Which “reverse transcriptase (RT) activity in the supernatants, Day 10 RT (OD)” value (“reverse transcriptase (RT) activity” for short) [7] did it give?
Its value is 1.56 OD.

B3: HKA-NH2 (peptide)
peptide: His-Lys-Ala-NH2
With B3 as the molecule, how does the “reverse transcriptase (RT) activity” value [7] read?
Its value is 2.55 OD.

B4: Ala-Ser-Gly-NH2 (peptide)
peptide: Ala-Ser-Gly-NH2
With B4 as the molecule, how does the “p24 production of infected HUT78 cells (HIV-1 p24 ELISA), Day 7 HIV-1, reduction (%), peptide at 100 µM” value [6] read?
The value was 25%.

B5: KAR-NH2 (peptide)
peptide: Lys-Ala-Arg-NH2
How did the “reverse transcriptase (RT) activity” value [7] turn out when B5 was run?
The value was 2.78 OD.

B6: Ala-Leu-Gly-NH2 (peptide)
peptide: Ala-Leu-Gly-NH2
B6 was tested. Which “p24 production of infected HUT78 cells (HIV-1 p24 ELISA), Day 7 HIV-1, reduction (%), peptide at 100 µM” value [6] did it give?
Its value is 100%.

B7: ARV-NH2 (peptide)
peptide: Ala-Arg-Val-NH2
Which “reverse transcriptase (RT) activity” value [7] does the source give for B7 here?
The value was 1.53 OD.

B8: ACQ-NH2 (peptide)
peptide: Ala-Cys-Gln-NH2
Which “reverse transcriptase (RT) activity” value [7] does the source give for B8 here?
Its value is 0.904 OD.

B9: Lys-Gln-Gly-NH2 (peptide)
peptide: Lys-Gln-Gly-NH2
With B9 as the molecule, how does the “p24 production of infected HUT78 cells (HIV-1 p24 ELISA), Day 7 HIV-1, reduction (%), peptide at 100 µM” value [6] read?
Its value is 99%.

B10: Gly-Val-Gly-NH2 (peptide)
peptide: Gly-Val-Gly-NH2
With B10 as the molecule, how does the “p24 production of infected HUT78 cells (HIV-1 p24 ELISA), Day 7 HIV-1, reduction (%), peptide at 100 µM” value [6] read?
The value was 25%.

B11: Ser-Pro-Thr-NH2 (peptide)
peptide: Ser-Pro-Thr-NH2
With B11 as the molecule, how does the “p24 production of infected HUT78 cells (HIV-1 p24 ELISA), Day 7 HIV-1, reduction (%), peptide at 100 µM” value [6] read?
Its value is 25%.

B12: KAL-NH2 (peptide)
peptide: Lys-Ala-Leu-NH2
With B12 as the molecule, how does the “reverse transcriptase (RT) activity” value [7] read?
The value was 2 OD.

B13: Arg-Gln-Gly-NH2 (peptide)
peptide: Arg-Gln-Gly-NH2
For B13, which “p24 production of infected HUT78 cells (HIV-1 p24 ELISA), Day 7 HIV-1, reduction (%), peptide at 100 µM” value [6] is on record?
Its value is 99%.

B14: Ser-Leu-Gly-NH2 (peptide)
peptide: Ser-Leu-Gly-NH2
Which “p24 production of infected HUT78 cells (HIV-1 p24 ELISA), Day 7 HIV-1, reduction (%), peptide at 100 µM” value [6] does the source give for B14 here?
Its value is 99%.

B15: Cys-Gln-Gly-NH2 (peptide)
peptide: Cys-Gln-Gly-NH2
How did the “reverse transcriptase (RT) activity” value [7] turn out when B15 was run?
Its value is 0.108 OD.
